We go through one substance from patent US20210063414A1, “METHODS FOR PREVENTING AND/OR TREATING BONE LOSS CONDITIONS BY MODULATING IRISIN” (Dana-Farber Cancer Institute, Inc., priority 2018, published 2021).

Common to all, as to experiment: Crosslinking/co-immunoprecipitation/mass spectrometry (TMT quantitative proteomics) to identify irisin receptors
Common to all, as to type: binding

Assay [1] concerns the target T1, MLO-Y4 cell surface proteins (Mus musculus, UniProt Q9DCW4).
T1 construct: endogenous in cells; host or cells: MLO-Y4
T1 sequence (Q9DCW4 1-255): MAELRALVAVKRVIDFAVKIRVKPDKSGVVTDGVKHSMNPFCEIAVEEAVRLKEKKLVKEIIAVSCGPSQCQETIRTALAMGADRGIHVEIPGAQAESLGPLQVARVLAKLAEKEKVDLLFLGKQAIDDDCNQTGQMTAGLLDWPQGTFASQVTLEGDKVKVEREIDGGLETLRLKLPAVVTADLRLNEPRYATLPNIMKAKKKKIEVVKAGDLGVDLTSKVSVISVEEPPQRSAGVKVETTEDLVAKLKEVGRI
To be noted: co-precipitated protein Etfb (ETFB_MOUSE). In a few lines:
(§1)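 Mouse MLO-Y4 cells were switched to serum-free FreeStyle medium for 4 h, chilled, then exposed to 10 nM His-tagged irisin (or adipsin as control) for 20 min. Cells were crosslinked with 1.5 mM DTSSP (30 min, ice), and bound proteins were pulled down on Ni-NTA and eluted with 250 mM imidazole. Eluates were separated by SDS-PAGE, trypsin-digested in gel, TMT 6-plex labelled and quantified by MS3-based LC-MS/MS on an Orbitrap Fusion Lumos.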

Assay [2] has as its target T2, MLO-Y4 cell surface proteins (Mus musculus, UniProt P16460).
T2 construct: endogenous in cells; host or cells: MLO-Y4
T2 sequence (P16460 1-412): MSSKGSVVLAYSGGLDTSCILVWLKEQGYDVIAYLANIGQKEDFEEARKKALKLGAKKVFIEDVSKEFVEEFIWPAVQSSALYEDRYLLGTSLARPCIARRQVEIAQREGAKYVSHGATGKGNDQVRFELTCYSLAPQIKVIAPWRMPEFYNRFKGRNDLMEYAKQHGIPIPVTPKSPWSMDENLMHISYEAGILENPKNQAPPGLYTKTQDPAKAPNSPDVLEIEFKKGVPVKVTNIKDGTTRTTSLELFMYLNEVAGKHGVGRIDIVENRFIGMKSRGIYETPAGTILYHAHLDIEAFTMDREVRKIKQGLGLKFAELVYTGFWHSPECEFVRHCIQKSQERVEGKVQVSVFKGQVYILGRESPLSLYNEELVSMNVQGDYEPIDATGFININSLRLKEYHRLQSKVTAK
To be noted: co-precipitated protein Ass1 (ASSY_MOUSE). In a few lines:
as §1

The target of assay [3] is T3, MLO-Y4 cell surface proteins (Mus musculus, UniProt P08249).
T3 construct: endogenous in cells; host or cells: MLO-Y4
T3 sequence (P08249 25-338): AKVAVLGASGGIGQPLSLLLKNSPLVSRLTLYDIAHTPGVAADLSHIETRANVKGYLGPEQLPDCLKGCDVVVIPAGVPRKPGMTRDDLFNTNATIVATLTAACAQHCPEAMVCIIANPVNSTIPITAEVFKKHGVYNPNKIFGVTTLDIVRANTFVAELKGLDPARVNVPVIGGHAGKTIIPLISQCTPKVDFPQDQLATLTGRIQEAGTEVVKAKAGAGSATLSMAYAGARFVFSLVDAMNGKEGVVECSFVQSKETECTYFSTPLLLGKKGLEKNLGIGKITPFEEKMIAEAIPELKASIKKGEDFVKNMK
Conditions: co-precipitated protein Mdh2 (MDHM_MOUSE). In a few lines:
as §1

On to adipsin, for which the TMT signal-to-noise ratio in assay [1] is reported as 730.275; in assay [2], 285.885; in assay [3] it was 2557.03.
